The results in this text go back to patent US20090318673A1 (NEC SOFT, published 2009).

This series deals with the molecule itself. Nature of the series: X-ray crystal structure, 1.9 A, space group C2221. From the text:
Programs, MOSFLM and SCALA (CCP4) were used in the data processing of the detected diffraction pattern and intensity data.

B1: GFP-like fluorescent protein from Chiridius poppei, CpYGFP (recombinant, wild type) (other)
chain: MTTFKIESRIHGNLNGEKFELVGGGVGEEGRLEIEMKTKDKPLAFSPFLLSHCMGYGFYHFASFPKGTKNIYLHAATNGGYTNTRKEIYEDGGILEVNFRYTYEFNKIIGDVECIGHGFPSQSPIFKDTIVKSCPTVDLMLPMSGNIIASSYARAFQLKDGSFYTAEVKNNIDFKNPIHESFSKSGPMFTHRRVEETHTKENLAMVEYQQVFNSAPRDM
modifications: G55-Y56-G57 cyclised and oxidised to the p-hydroxybenzylideneimidazolinone fluorescent moiety
notes: Expressed in E. coli from pET101-NFP, purified and crystallised; In the crystal (space group C2221, PDB 2DD7) it is seen as a dimer; also called recombinant CpYGFP; wild-type CpYGFP
Consider B1, for which the binding result is “binds”.
